Test system: ZAP-S
Assay: MST

SARS-CoV-2 -1PRF pseudoknot RNA (WT)
Kd: 121 nM

Reference: doi:10.1101/2021.05.31.445667
